Results reported in article PMC3079366.
Read-outs that look alike come from different tables or passages of the source.

Measured: localisation_or_trafficking

GluA1: GluA1-4KR (K813, K819, K822, K868 to R) co-transfected with Nedd4-1 in HEK293T
abolishes: ubiquitination at K813 | ubiquitination at K819 | ubiquitination at K822 | ubiquitination at K868
